Read-outs that look alike come from different tables or passages of the source. Where only a bound is given, the exact number is not on record here.

A short description of data set [1]: Fluorescence spectroscopy of aggregation (intensity in PBS vs DMSO). The class given is physicochemical. The conditions noted are these: 316 nM in PBS; incomplete aggregation. The method, then:
Aggregation of 5′ at low concentrations was analyzed by fluorescence spectroscopy. The ratio of maximum fluorescence intensity of samples in PBS to that of sample in DMSO was plotted against concentration (FIG. 9). The ratio decreased as the concentration increased in the range of 1.0 nM to 316 nM, which implies that 5′ aggregates more in PBS as the concentration increases. Even with the concentration of 316 nM, the sample didn't aggregate completely in PBS and retained ˜30% fluorescence. The long PEG chain in 5′ provides the compound with good hydrophilicity and may contribute to incomplete aggregation. Fluorescence intensity at higher or lower concentrations was not measured due to the detection range of the instrument. The porphyrin-peptide conjugate without PEG chain, 4′, was examined by fluorescence intensity as well. Samples at 31.6 nM, 100 nM, and 316 nM were analyzed and the fluorescence intensity ratio of all samples was below 2%. The results imply that 4′ almost aggregates completely even at a very low concentration.
Fluorescence spectroscopy. Samples were dissolved in PBS and DMSO at different concentrations. The excitation wavelength was 419 nm for all samples in DMSO, 415 nm for 5′ in PBS, and 419 nm for 4′ in PBS. The intensity ratio was calculated with the maximum emission of each sample. […]

The test system of data set [2] is alkaline phosphatase (ALP). The settings on record: 10 μM in PBS, 10 min at 10000 rpm. On the procedure:
Samples of 5 (10 μM in PBS) with or without ALP treatment were centrifuged with Amicon centrifugation devices (molecular cutoff 50 kDa). […] Solutions collected in the bottom or top tube for the sample that underwent enzyme treatment were analyzed with absorption spectroscopy (FIG. 5).

The nature of data set [3]: Absorption spectroscopy in PBS or DMSO (solubility / aggregation). Type of data set: physicochemical. The settings on record: PBS; absorption spectra 0.1-100 μM; read-out: soluble in PBS with essentially no aggregation or assembly. On the procedure: Samples of 5′ at 1 μM in DMSO or PBS were analyzed by absorption spectroscopy (FIG. 8, panel A). […] In PBS, two broad peaks at 417 nm and 455 nm were observed, indicating aggregation of the sample at 1 μM. Samples of 4′ at 1 μM in DMSO or PBS were also analyzed for comparison (FIG. 8, panel B). The spectrum of the sample in DMSO was identical with 5′, while in PBS the Soret band spilt into 3 broad peaks at 409 nm, 419 nm and 455 nm. The different spectra between 4′ and 5′ might result from different ways of porphyrin stacking, as 4′ doesn't have the long PEG chain in its structure.
Samples of 0.1 μM, 1 μM, 10 μM and 100 μM were analyzed using cuvettes with a pathlength of 10 cm, 1 cm, 0.1 cm and 0.01 cm, respectively. There is only a very slight broadening of the absorption bands at 100 μM, and at all concentrations the general spectroscopic features characteristic of the porphyrin are retained.

The target of data set [4] is T1, alkaline phosphatase (ALP) (Bos taurus, UniProt P19111).
T1 construct: Alkaline phosphatase from bovine intestinal mucosa was purchased from Sigma-Aldrich; purchased Sigma-Aldrich; host or cells: bovine intestinal mucosa (tissue-derived)
The experiment in a line: Enzymatic assay of 5 with alkaline phosphatase, aggregation followed by absorption spectroscopy. The class given is biochemical, bovine. On the procedure: The stock solution of 5 in DMSO was diluted with PBS to prepare sample solutions with different concentrations (0.10 μM, 0.20 μM, 0.50 μM, 1.0 μM, 2.0 μM, and 5.0 μM). Each sample was treated with 2 U/mL of alkaline phosphatase (ALP) and incubated overnight at 37° C. The absorption spectra across the range 300-700 nm, where the porphyrin absorbs strongly, were measured before and after the enzyme treatment for each sample (FIG. 4, panels A-F). For samples with concentration lower than 0.50 μM (FIG. 4, panels A, B), the intensity of the Soret band of 5 at 420 nm decreased after enzyme treatment, yet precipitation or other signs of aggregation were not observed. When the concentration of the sample was equal to or higher than 0.50 μM (FIG. 4, panels C-F), the intensity of the Soret peak at 420 nm decreased and a new peak appeared at 455 nm after the enzyme treatment. The new peak at 455 nm indicates the aggregation of the sample upon the treatment of ALP. The Q band (at ˜550 nm) also underwent a bathochromic shift and broadening, albeit of lesser magnitude than that of the higher-energy Soret band. Compound 5′, which lacks the two phosphoester moieties, is prone to aggregation in PBS, consistent with the observed results for ALP treatment of 5. The change in the color of the sample was also observed. After the overnight incubation, the color of the sample changed from pink to orange.
To confirm that the peak appeared after enzyme treatment was caused by aggregation, DMSO was added to the sample of 5 (5.0 μM in PBS) after enzyme treatment to disaggregate the sample. After adding DMSO to dilute the solution in half, the peak at 455 nm almost disappeared and the intensity of the peak at 420 nm increased. Color changes of the solution were observed during the treatment, with the solution appearing pink initially (indicating a monomeric state), then yellow after treatment with ALP (indicating aggregation), and finally returning to pink after dilution with DMSO, albeit a lighter pink than the initial solution, due to dilution (indicating disaggregation). The result further confirmed that compound 5 aggregates in aqueous solution after the enzyme treatment.
Enzymatic assay. The stock solution of 5 in DMSO (2 mM) was diluted with PBS to prepare sample solutions with different concentrations. The final concentrations of 5 in each sample were 0.20 μM, 0.50 μM, 1.0 μM, 2.0 μM, 5.0 μM and 10 μM, respectively. A solution of alkaline phosphatase from bovine intestinal mucosa (10 μL, 100 U/mL in PBS) was added to each sample solution to reach a final volume of 500 μL (PBS containing 0.5% DMSO). The reaction mixture was incubated overnight at 37° C. Then each sample was analyzed by absorption spectroscopy. Samples without the treatment of ALP were also analyzed to serve as controls.
To confirm the aggregation of the dephosphorylated 5 in PBS, 500 μL of DMSO was added to one of the treated samples (10 μM) and was then analyzed by absorption spectroscopy.

For data set [5], the target named is T1, alkaline phosphatase (ALP). The experiment in a line: Enzymatic cleavage of 5 by ALP monitored by reverse-phase HPLC. Type of data set: biochemical, bovine. The conditions noted are these: 200 μM in PBS, 2 U/mL ALP, 37° C., 6-hour incubation. The method, then: The enzymatic cleavage was monitored with reverse-phase high performance liquid chromatography. A solution of 200 μM 5 in PBS was treated with 2 U/mL ALP and incubated at 37° C. A small part of sample was taken from the reaction at different time points (30 min, 1 h, 2 h, 4 h, 6 h and 8 h) and was analyzed by HPLC (5-95% MeCN/10 mM NH4HCO3 in H2O) (FIG. 7). The 3 peaks in the chromatograph after 30 min of ALP treatment represents compound 5 (peak 1), partially cleaved product (peak 2) and fully cleaved product (peak 3). The reaction almost completes after 6-hour incubation (>95% by integration). The LC trace of the standard dephosphorylated sample 5′ is shown for comparison. Attempts were made to get LC-MS data for 5 but no mass signal was detected. This might result from the poor solubility of 5 in the acidic mobile phase (MeCN/H2O, 0.1% FA).
Reverse phase high performance liquid chromatography. A solution of 200 μM 5 in PBS was treated with 2 U/mL ALP and incubated at 37° C. A small part of sample was taken from the reaction at different time points (30 min, 1 h, 2 h, 4 h, 6 h and 8 h) and was analyzed by RP-HPLC with an Agilent Zorbax SB-C18 column (5 μm, 4.6×150 mm). The sample was run for 15 min with a linear gradient (5-95% MeCN/10 mM NH4HCO3 in H2O) and detected with a diode-array detector at 420 nm.

T1 sequence (P19111 20-506 limits assumed): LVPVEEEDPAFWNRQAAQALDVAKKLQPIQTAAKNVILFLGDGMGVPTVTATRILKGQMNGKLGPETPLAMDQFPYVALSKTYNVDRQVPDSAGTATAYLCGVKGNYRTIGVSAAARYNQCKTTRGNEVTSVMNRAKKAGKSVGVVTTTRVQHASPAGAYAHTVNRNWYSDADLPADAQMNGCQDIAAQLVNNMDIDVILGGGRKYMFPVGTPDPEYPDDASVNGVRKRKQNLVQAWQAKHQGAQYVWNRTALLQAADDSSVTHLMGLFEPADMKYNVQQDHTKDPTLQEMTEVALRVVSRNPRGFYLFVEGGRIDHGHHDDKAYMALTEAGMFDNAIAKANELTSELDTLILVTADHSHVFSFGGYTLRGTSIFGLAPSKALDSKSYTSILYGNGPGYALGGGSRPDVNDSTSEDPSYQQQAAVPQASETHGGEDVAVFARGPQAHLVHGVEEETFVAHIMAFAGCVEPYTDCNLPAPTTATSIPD

Regarding PEG24-GffY-OH [Compound 5′], in data set [1], the “fluorescence retained in PBS (relative to DMSO)” value is reported as around 30%.
For the compound `COCCOCCOCCOCCOCCOCCOCCOCCOCCOCCOCCOCCOCCOCCOCCOCCOCCOCCOCCOCCOCCOCCOCCOCCn1cc(-c2ccc(-c3c4nc(cc5ccc([nH]5)c(-c5c(OCc6cn(CCC(=O)NCC(=O)N[C@H](Cc7ccccc7)C(=O)N[C@H](Cc7ccccc7)C(=O)N[C@@H](Cc7ccc(OP(=O)(O)O)cc7)C(=O)O)nn6)cccc5OCc5cn(CCC(=O)NCC(=O)N[C@H](Cc6ccccc6)C(=O)N[C@H](Cc6ccccc6)C(=O)N[C@@H](Cc6ccc(OP(=O)(O)O)cc6)C(=O)O)nn5)c5nc(cc6ccc3[nH]6)C=C5)C=C4)cc2)nn1` [Compound 5, PEG24-GffY(p)-OH], the entries for the “passage through 50 kDa membrane” value in data set [2] (after ALP treatment) and in data set [2] (without ALP treatment) were “didn't pass through the membrane” and “passed through the 50 kDa membrane”, respectively. In addition, the solubility in data set [3] is at least 100 µM. For the same compound, the “behaviour of activated form at very low concentration” value in data set [4] (0.1 μM) is given as “came out of solution without forming a gel superstructure”. The “concentration at which new peak at 455 nm (aggregation) appears after enzyme treatment” value in data set [4] (PBS with 0.5% DMSO, 2 U/mL ALP, overnight 37° C.) was at least 500 nM. In data set [4] (after ALP treatment in PBS, upon addition of DMSO), the reversibility of aggregation result is “reversible”. In addition, in data set [4] (after ALP treatment, centrifugation >10000 rpm or storage >1 month), the “precipitation after high-speed centrifugation or long-time storage” value was “No precipitation or microcrystals were observed”. The “formation of microcrystals or precipitates upon ALP treatment” value in data set [4] (concentration as high as 200 μM) is reported as “did not form microcrystals or precipitates”. Besides, the “completion of dephosphorylation reaction by HPLC integration” value in data set [5] is above 95%.

The values above are taken from patent publication US20250009913A1, “COMPOUNDS FOR USE IN NON-COVALENT SCAFFOLD AND METHODS RELATED THERETO” (NORTH CAROLINA STATE UNIVERSITY, priority 2023, published 2025).
